Data on five molecules can be found in article PMC8202330, “Phosphorylation of the LIR Domain of SCOC Modulates ATG8 Binding Affinity and Specificity” (Journal of Molecular Biology, 2021).

Non-standard residues stand in square brackets, D forms with d. *: point of attachment. Biotin = O=C1N[C@H]2[C@H](CS[C@H]2CCCCC(=O)*)N1; pS = N[C@@H](COP(=O)(O)O)C(=O)O; linker = not defined here

B3: GABARAP (for BLI) (natural protein, human, UniProt O95166 1-117, looked up)
chain: MKFVYKEEHPFEKRRSEGEKIRKKYPDRVPVIVEKAPKARIGDLDKKKYLVPSDLTVGQFYFLIRKRIHLRAEDALFFFVNNVIPPTSATMGQLYQEHHEEDFFLYIAYSDESVYGL
notes: human GABARAP in the pAL plasmid (GST, 3C site)
B4: LC3C (for BLI) (natural protein, human, UniProt Q9BXW4 1-126, looked up)
chain: MPPPQKIPSVRPFKQRKSLAIRQEEVAGIRAKFPNKIPVVVERYPRETFLPPLDKTKFLVPQELTMTQFLSIIRSRMVLRATEAFYLLVNNKSLVSMSATMAEIYRDYKDEDGFVYMTYASQETFG
notes: human LC3C in the pAL plasmid (GST, 3C site)

What all share (experiment): BLI; biotinylated LIR peptide immobilized on streptavidin biosensor, ATG8 in solution; 25 mM Tris pH 7.5, 150 mM NaCl, 0.5 mM TCEP, 0.1% Tween20, 1 mg/ml BSA; 25 °C; Kd from response against concentration
Holding throughout (details): both partners purified
(In general: In BLI a coated tip is dipped into the sample, and binding shifts an interference pattern.)

The test “LC3C (for BLI)” deals with B4.
The target of a further test is T1, GABARAPL1 (for BLI) (human, UniProt Q9H0R8 1-117).
T1 construct: human GABARAPL1 in the pAL plasmid (GST, 3C site)

The next test has as its target T2, LC3A (for BLI) (human, UniProt Q9H492 1-121).
T2 construct: human LC3A in the pAL plasmid (GST, 3C site)

Another test has as its target T3, GABARAPL2 (for BLI) (human, UniProt P60520 1-117).
T3 construct: human GABARAPL2 in the pAL plasmid (GST, 3C site)

The test “GABARAP (for BLI)” deals with B3.
The target of a further test is LC3B (for BLI) (human, UniProt Q9GZQ8 1-120).
The next test addresses T4, SCOC aa 6–18 LIR peptide (human, reading uncertain).
T4 construct: SCOC isoform 3 aa 6-18; source: synthetic peptide
T4 peptide: {Biotin-linker}-KEEEEDSTFTNIS-NH2

Another test concerns the target T5, SCOC pS12 LIR peptide (human, phosphoserine at 12; biotin-linker on the N-terminus; C-terminal amide).
T5 construct: SCOC isoform 3 aa 6-25; source: synthetic peptide
T5 peptide: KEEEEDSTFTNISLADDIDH

In test [1] the target is T6, SCOC aa 11–25 LIR peptide (human, reading uncertain).
T6 construct: SCOC isoform 3 aa 11-25; also called SCOC LIR motif (aa 11–25); source: synthetic peptide
T6 peptide: {Biotin-linker}-DSTFTNISLADDIDH-NH2

Test [2] addresses T7, SCOC pS12/pT15 LIR peptide (human, phosphoserine at 12; phosphothreonine at 15; biotin-linker on the N-terminus; C-terminal amide).
T7 construct: SCOC isoform 3 aa 6-25; also called S12/T15^SCOC; source: synthetic peptide
T7 peptide: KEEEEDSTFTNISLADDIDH

T3 sequence (P60520 whole entry): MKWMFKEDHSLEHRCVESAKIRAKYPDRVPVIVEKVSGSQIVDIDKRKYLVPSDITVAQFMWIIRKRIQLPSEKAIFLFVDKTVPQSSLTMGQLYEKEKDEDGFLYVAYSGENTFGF

B1: SCOC WT (aa 6–25) LIR peptide (peptide)
peptide: {Biotin-linker}-KEEEEDSTFTNISLADDIDH-NH2
modifications: reading uncertain
notes: SCOC isoform 3 aa 6-25; also called SCOC (WT) LIR domain peptide; SCOC LIR; source: synthetic peptide
As usually defined, the Kd is the equilibrium constant for the complex coming apart. On to B1, for which the Kd stood at 8.7 µM with LC3C (for BLI); 2.3 µM in the test with GABARAPL1 (for BLI); 27.8 µM with LC3A (for BLI); 44.4 µM with GABARAPL2 (for BLI); 3.6 µM in the test with GABARAP (for BLI); 270 µM with LC3B (for BLI).

B2: SCOC aa 6–20 LIR peptide (peptide)
peptide: {Biotin-linker}-KEEEEDSTFTNISLA-NH2
modifications: reading uncertain
notes: SCOC isoform 3 aa 6-20; also called SCOC LIR motif (aa 6–20); source: synthetic peptide
In the case of B2, the binding result with LC3C (for BLI), with GABARAPL1 (for BLI) and in the test with GABARAP (for BLI) was “binds” in each case.
In the case of B3, the figures for the “fold decrease in affinity against SCOC WT LIR peptide” value (in the test with SCOC aa 6–18 LIR peptide; in [1]) were 4 fold and 37 fold, respectively. Besides, the “fold increase in affinity over SCOC WT LIR peptide” value in the test with SCOC pS12 LIR peptide was found to be 2 fold.
Turning to B4, the “fold decrease in affinity against SCOC WT LIR peptide” value in the test with SCOC aa 6–18 LIR peptide is 22 fold; in [1], 16 fold. Also, the “fold increase in affinity over SCOC WT LIR peptide” value in test [2] was 21 fold.

B5: SCOC aa 6–20/pS18 LIR peptide (peptide)
peptide: {Biotin-linker}-KEEEEDSTFTNI[pS]LA-NH2
modifications: reading uncertain
notes: SCOC isoform 3 aa 6-20; source: synthetic peptide
As for B5, the binding result with LC3C (for BLI), with GABARAPL1 (for BLI), in the test with LC3A (for BLI) and with GABARAP (for BLI) was “binds” in each case.
